Reference: patent US12385914B2, “CRY1-clock-BMAL1 complex-disrupting agents and methods of identifying and using same” (The Regents of the University of California, priority 2017, dated 2025)
“Also recorded” adds a separate entry of the source.

Molecular target: T1, CRY1-CLOCK PAS-B domain complex (Mus musculus, UniProt P97784)
T1 construct: His6 (N, cleaved yes); made in house; host or cells: CRY1 PHR: Sf9 insect cells (baculovirus)
T1 sequence (P97784 with tags, fused parts or gaps): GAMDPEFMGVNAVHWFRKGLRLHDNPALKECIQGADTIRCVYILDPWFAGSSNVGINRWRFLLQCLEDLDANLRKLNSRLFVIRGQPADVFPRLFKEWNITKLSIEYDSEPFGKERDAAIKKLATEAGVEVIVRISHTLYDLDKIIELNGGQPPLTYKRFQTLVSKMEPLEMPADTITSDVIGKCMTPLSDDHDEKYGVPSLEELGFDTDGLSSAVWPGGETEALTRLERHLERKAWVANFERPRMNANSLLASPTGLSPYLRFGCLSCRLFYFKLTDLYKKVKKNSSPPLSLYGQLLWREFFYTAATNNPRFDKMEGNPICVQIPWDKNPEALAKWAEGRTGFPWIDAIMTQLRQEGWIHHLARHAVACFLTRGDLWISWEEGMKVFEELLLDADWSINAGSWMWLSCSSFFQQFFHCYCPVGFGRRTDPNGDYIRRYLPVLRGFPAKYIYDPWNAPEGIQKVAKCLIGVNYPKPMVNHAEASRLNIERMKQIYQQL
Assay: Fluorescence polarization (FP)-based displacement assay of labeled CLOCK PAS-B from CRY1 PHR
Type: binding
Settings: 100 μM peptide; 20 nM CLOCK PAS-B probe and 4 μM CRY1 PHR; triplicate wells; FIG. 13
Description: Described in this example is a fluorescence polarization (FP)-based displacement assay developed by the inventors for identifying agents that disrupt the CRY1-CLOCK-BMAL1 ternary complex.
CRY1 PHR and CLOCK PAS-B domain fluorescently labeled at its N-terminus were prepared as described in the preceding examples. Equipment/Reagents included the following: Greiner 384 Well Assay Plate, 120 μl rounded square wells, flat bottom, black polystyrene; Envision 2103 Multilabel Reader (2103-0020); Fluorescence Polarization (FP) assay buffer (50 mM Bis-Tris Propane, 100 mM NaCl, 2 mM TCEP, 0.05% Tween-20, 0.5% DMSO, pH 7.5); and GraphPad Prism (version 6 or higher). All assay components were buffer exchanged into FP buffer.
A stock assay mixture of 8 μM CRY1 and 40 nM labeled CLOCK PAS-B was incubated at 4° C. overnight. Equal volumes (half of final well volume) stock assay mixture was dispensed into wells of the Greiner 384 Well Assay Plate, reserving wells for appropriate controls. […] Fluorescence polarization was measured using an Envision 2013 plate reader.
A labeled CLOCK PAS-B-only control of 20 nM was used to determine the G-factor for FP. The G-factor should be variable “G” such that Fluorescence polarization (FP)=1000*(S−G*P)/(S+G*P). […] G=(S/P)*(1−27/1000)/(1+27/1000), with S being the parallel fluorescence intensity, and P being the perpendicular fluorescence intensity. […]

## peptide encoded by CRY1 Exon 11: 23 residue peptide encoded by human CRY1 Exon 11 (residues 530-552), sequence CSQGSG1LHYAHGDSQQTHLLK; positive control inhibitor (CSQGSGILHYAHGDSQQTHLLK; listed as Homo sapiens)
  displacement of CLOCK PAS-B from the CRY1 PHR: displaced CLOCK PAS-B from the CRY1 PHR; also recorded: able to displace CLOCK PAS-B from the CRY1 PHR
